Experimental data: US20230416361A1 (MIROBIO, published 2023)

Assays:
[1] = biological target: T1, human CD200RLa full length construct on HEK293T cells (human, UniProt Q6Q8B3 24-271); assay: flow cytometry on transiently transfected HEK293T cells
T1 construct: whole, on cells; also called CD200R1L
T1 sequence (looked up): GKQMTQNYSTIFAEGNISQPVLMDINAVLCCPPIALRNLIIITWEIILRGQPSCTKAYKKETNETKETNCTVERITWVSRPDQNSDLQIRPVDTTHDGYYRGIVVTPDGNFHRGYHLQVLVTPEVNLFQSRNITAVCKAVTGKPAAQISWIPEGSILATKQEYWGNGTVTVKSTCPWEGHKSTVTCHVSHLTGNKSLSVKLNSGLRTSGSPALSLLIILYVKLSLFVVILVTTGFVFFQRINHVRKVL
Method: (§1) The binding of CD200R antibodies to human and cyno CD200R and CD200RLa constructs was assessed by flow cytometry of transiently transfected cells. CD200RLa has a charged transmembrane (TM) that is not expected to express well in the absence of appropriate binding partners. Therefore, in addition to the full length CD200RLa constructs, chimeric constructs were used consisting of the CD200RLa extracellular domain fused to mouse CD80 transmembrane and intracellular tail to enable cell surface expression.
(§2) HEK293T cells were plated out at 1 million cells per well in a 6 well plate the day before transfection. The following day cells were transfected with CD200R constructs using 2.5 μg plasmid DNA (a pcDNA3.4 vector containing the CD200R construct sequence) and 10 μl Lipofectamine 2000 (mixed in 200 μl Optimem for 5 minutes then added dropwise to cells). 48 hours after transfection, cells were collected by vigorous pipetting in cold PBS and 50,000 cells pelleted per well in 96 well U bottom plates.
(§3) Cells were then washed and stained for 30 minutes with a secondary staining mix containing a live/dead marker (Near IR LD, Biolegend cat #423106) and APC anti-hIgG (clone QA19A42, Biolegend cat #366906) or AF647 anti-mIgG1 (clone RMG1-1, cat #406618). As a control, cells were separately stained with the commercial anti-CD200R clone OX108 directly labelled with AF647 (Biolegend cat #329308). Finally, cells were washed and resuspended in FACS buffer for acquisition on a FACS Celesta flow cytometer.

[2] = biological target: T2, human CD200RLa extracellular domain fused to mouse CD80 transmembrane and intracellular tail, on HEK293T cells (human; mouse, UniProt Q6Q8B3 24-239; Q00609 247-306, limits assumed); assay: as above
T2 construct: extracellular domain;domain: transmembrane and intracellular tail; also called human CD200RLa chimeric construct
T2 sequence (looked up): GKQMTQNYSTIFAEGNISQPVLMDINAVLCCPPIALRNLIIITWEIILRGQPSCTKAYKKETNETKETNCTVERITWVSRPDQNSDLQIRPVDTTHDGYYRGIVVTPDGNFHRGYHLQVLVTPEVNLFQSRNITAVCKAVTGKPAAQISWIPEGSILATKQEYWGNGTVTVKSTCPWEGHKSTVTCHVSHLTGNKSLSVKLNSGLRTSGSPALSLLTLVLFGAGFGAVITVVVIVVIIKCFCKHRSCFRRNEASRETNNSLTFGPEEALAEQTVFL
Method: as §1, §2, §3

[3] = biological target: T3, cyno CD200RLa full length construct on cells (cynomolgus, UniProt A0A2K5W6R0 30-275); assay: as above
T3 construct: whole, on cells; also called cynomolgus CD200RLa expressed on cells
T3 sequence: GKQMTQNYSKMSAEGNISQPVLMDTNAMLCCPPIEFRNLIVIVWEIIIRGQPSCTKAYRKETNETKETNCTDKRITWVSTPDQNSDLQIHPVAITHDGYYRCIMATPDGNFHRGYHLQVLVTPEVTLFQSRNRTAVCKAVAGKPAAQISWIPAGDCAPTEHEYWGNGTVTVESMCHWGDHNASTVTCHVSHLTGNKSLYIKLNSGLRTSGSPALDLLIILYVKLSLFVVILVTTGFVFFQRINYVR
Method: as §1, §2, §3

[4] = biological target: T4, monomeric soluble human CD200R extracellular domain (human, UniProt Q8TD46 29-265); assay: BLI (Octet), antibody on anti-human Fc probes, monomeric CD200R in solution, 25 C, 1:1 global fit
T4 construct: extracellular domain; also called hCD200R; monomeric CD200R protein
T4 sequence (looked up): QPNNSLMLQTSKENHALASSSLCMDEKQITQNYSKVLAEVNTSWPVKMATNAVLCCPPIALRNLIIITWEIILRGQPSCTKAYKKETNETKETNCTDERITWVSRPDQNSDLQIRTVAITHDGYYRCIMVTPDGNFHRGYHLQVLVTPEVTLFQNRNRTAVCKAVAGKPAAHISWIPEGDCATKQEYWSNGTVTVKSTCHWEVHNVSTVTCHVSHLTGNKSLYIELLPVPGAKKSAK
Method: Humanised variant antibodies combining the different heavy and light variable domains described in Example 6 were produced by transient transfection of HEK293 cells. All antibodies were expressed on a human IgGI isotype with a P238D Fc mutation. The unpurified supernatants were analysed by Protein A-HPLC to determine the antibody concentrations, as a measure of expression yield. […] Binding affinity of humanized variants to human CD200R was assessed by bio-layer interferometry on an Octet R4 instrument. Each antibody was captured directly onto anti-human Fc capture probes (Sartorius 18-5060) for 60 sec followed by baseline setting in assay buffer (DPBS, 0.01% Polysorbate-20). Association of monomeric CD200R protein to immobilised antibodies was measured in 4 different protein concentrations (300, 100, 30 and 10 nM in assay buffer) at 25° C., with an association time of 120s and dissociation of 120s in assay buffer only. A reference probe with no antibody immobilised was used for background subtraction. Kinetic rate constants and binding KDs were calculated using Octet Analysis Studio 12 software. Global curve fitting based on all 4 concentrations using a 1:1 model was performed, from which kon and koff were obtained to calculate KD using the relationship KD=koff/kon.

[5] = biological target: T5, extracellular domain of cyno CD200R (SinoBiological 11232-C08H, Met1-Leu267) (cynomolgus, UniProt G7NZT0 25-268); assay: SPR (Biacore), antibody captured by anti-human Fc, CD200R extracellular domain injected, single cycle kinetics, 25 C
T5 construct: range 1-267; Bought protein
T5 sequence: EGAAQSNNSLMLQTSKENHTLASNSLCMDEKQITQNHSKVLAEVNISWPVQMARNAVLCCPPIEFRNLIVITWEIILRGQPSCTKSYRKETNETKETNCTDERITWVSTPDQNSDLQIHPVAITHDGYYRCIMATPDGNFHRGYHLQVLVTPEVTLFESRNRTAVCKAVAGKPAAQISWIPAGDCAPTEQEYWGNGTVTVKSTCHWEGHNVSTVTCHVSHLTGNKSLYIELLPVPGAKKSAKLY
Method: This example investigates in vitro CD200R binding of anti-CD200R antibodies by surface plasmon resonance. Surface plasmon resonance binding experiments with purified anti-CD200R antibody (expressed on a hIgG1 isotype with a P238D Fc mutation) were performed using the Biacore T200 and 8K+instruments. Anti-human Fc antibody (Life Technologies H10500) was amine-coupled to a C1 sensor chip using standard amine-coupling chemistry. Residual activated carboxyls were blocked with ethanolamine. Antibodies with a human Fc were then captured on these surfaces.
To assess the binding of hu2131_v20_D56S antibody and variants (antibody hu213l_Q1E and antibody hu2131_Q1E_M99G) to the extracellular domains of human CD200R (Met29-Leu243) and cyno CD200R (SinoBiological 11232-C08H, Metl-Leu267), 10-30 RUs of antibody were captured. CD200R proteins were diluted into running buffer (10 mM HEPES, 150 mM NaCl, 3 mM EDTA, 0.01% Polysorbate 20, pH 7.4 with 0.1 mg/mL BSA) (full-length antibody sequences are disclosed in Table 10). Five three-fold serial dilutions were performed for each CD200R, with highest concentration being 100 nM. Samples were injected using a single cycle kinetics scheme (Karlsson Anal Biochem et al 2006). Data were analyzed using Biacore Insight Evaluation Software and fit to a simple kinetic model, from which kon and koff were obtained to calculate KD using the relationship KD=koff/kon. Experiments were run at 25° C.

[6] = biological target: T3, cyno CD200RLa full length construct on …; assay: flow cytometry
Method: as §1, §2
as §3, with “Finally, cells were washed and resuspended in FACS buffer for acquisition on a FACS Celesta flow cytometer.” left out

[7] = biological target: T4, monomeric soluble human CD200R …; assay: SPR, captured antibody, soluble monomeric receptor injected, single cycle kinetics, 37 C
Method: (§4) The binding affinity and kinetics of the CD200R antibodies of the present disclosure to human or cynomolgus CD200R were determined by surface plasmon resonance (SPR) using the Biacore T200 (GE Healthcare). Mouse antibody capture kit (GE Healthcare) was used to coat a Series S CM5 Sensor Chip (GE Healthcare) with polyclonal anti-mouse IgG.
(§5) Anti-CD200R antibody was captured onto the biosensor surface and a negative control antibody (clone Mopc21; Biolegend) captured in the reference channel. Various concentrations of monomeric soluble human CD200R extracellular domain, soluble cynomolgus macaque CD200R1 extracellular domain or soluble cynomolgus macaque CD200RLa (a highly homologous activating receptor) were injected over the immobilized antibodies in the buffer 10 mM Hepes, 150 mM NaCl, 0.005% v/v Surfactant P20, pH 7.4 (HBS-P) at 37° C., in a single cycle kinetics analysis. Association and dissociation rates were fitted using BiaEvaluation Software (GE Healthcare) after reference and blank subtractions, and dissociation constants were calculated (Table 2).

[8] = biological target: T6, soluble cynomolgus macaque CD200R1 extracellular domain (cynomolgus macaque, UniProt G7NZT0 29-266); assay: as above
T6 construct: extracellular domain; also called Cynomolgus CD200R
T6 sequence: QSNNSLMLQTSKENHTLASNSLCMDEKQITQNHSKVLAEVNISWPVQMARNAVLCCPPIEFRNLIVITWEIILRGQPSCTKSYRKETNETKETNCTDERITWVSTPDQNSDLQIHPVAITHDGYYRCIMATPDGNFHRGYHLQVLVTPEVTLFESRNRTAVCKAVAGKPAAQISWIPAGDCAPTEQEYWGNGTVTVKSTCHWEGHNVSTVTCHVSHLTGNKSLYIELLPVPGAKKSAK
Method: as §4, §5

binding result [1]	binding result [2]	binding result [3]	Kd [5] [nM]	koff [5] [s⁻¹]	kon [5] [M⁻¹ s⁻¹]	binding result [6]	Kd [8] [nM]	Binder	Kd [4] [nM]	Kd [7] [nM]
no binding (tested: 10 ug/ml)	no binding (tested: 10 ug/ml)	no binding (tested: 10 ug/ml)	0.0917	2.23e-05	244000	–	–	hu2131_Q1E_M99G hIgG1k P238D (antibody, V domains shown) VH: EVQLVQSGAEVKKPGASVKVSCKASGHTFTSYWMHWVRQAPGQGLEWMGNIYPGSGSINYDEKFQGRVTMTADTSTSTVYMELSSLRSEDTAVYYCLTGTGTSWGRGTLVTVSS VL: DIQMTQSPSSLSVSVGDRVTITCQASQGTPINLHWFQQKPGKAPKLLISGASNLESGVPSRFSGSGSGTEFTFTISSLQPEDAATYYCLQFTYIPWTFGQGTKLEIKR	–	–
no binding (tested: 10 ug/ml)	no binding (tested: 10 ug/ml)	no binding (tested: 10 ug/ml)	–	–	–	–	–	2131_chimera (antibody, V domains shown) VH: QVQLQQPGSELVRPGASVKLSCKASGHTFTSYWMHWVKQRPGQGLEWIGNIYPGSGSINYDEKFKSKAKLTVDTSSRTAYMQLSSLTSEDSAVYYCLTMTGTSWGQGTLVTVSA VL: DVQMIQSPSSLSASLGDIVTMTCQASQGTPINLHWFQQKPGKAPKLLISGASNLEDGVPSRFSGSRYGTAFTLTISSLEDEDMATYFCLQFTYIPWTFGGGTKLEIK	0.00304	–

Further lines, the binder ahead of its results:

Binder	binding result [1]	binding result [2]	binding result [3]	Kd [5] [nM]	koff [5] [s⁻¹]	kon [5] [M⁻¹ s⁻¹]	binding result [6]	Kd [8] [nM]	Kd [4] [nM]	Kd [7] [nM]
hu2131_v20_D56S hIgG1k P238D (antibody, also called VH4/VL5-D56S) heavy: not shown light: DIQMTQSPSSLSVSVGDRVTITCQASQGTPINLHWFQQKPGKAPKLLISGASNLESGVPSRFSGSGSGTEFTFTISSLQPEDAATYYCLQFTYIPWTFGQGTKLEIKRTVAAPSVFIFPPSDEQLKSGTASVVCLLNNFYPREAKVQWKVDNALQSGNSQESVTEQDSKDSTYSLSSTLTLSKADYEKHKVYACEVTHQGLSSPVTKSFNRGEC	no binding (tested: 10 ug/ml)	no binding (tested: 10 ug/ml)	no binding (tested: 10 ug/ml)	0.041	1.06e-05	258000	–	–	0.00206	–
anti-CD200R antibody clone 21.3.1 (mIgG1k isotype) (antibody, V domains shown, Murine hybridoma antibody, IgG1 kappa) VH: QVQLQQPGSELVRPGASVKLSCKASGHTFTSYWMHWVKQRPGQGLEWIGNIYPGSGSINYDEKFKSKAKLTVDTSSRTAYMQLSSLTSEDSAVYYCLTMTGTSWGQGTLVTVSA VL: DVQMIQSPSSLSASLGDIVTMTCQASQGTPINLHWFQQKPGKAPKLLISGASNLEDGVPSRFSGSRYGTAFTLTISSLEDEDMATYFCLQFTYIPWTFGGGTKLEIKR	no binding (tested: 10 ug/ml)	no binding (tested: 10 ug/ml)	–	–	–	–	no binding	0.00825	–	0.3
